The Kd is the constant that tells how readily two partners part at equilibrium.

Where only a bound is given, the exact number is not on record here.

Series [1] has as its target T1, AskC (hybrid histidine kinase, MXAN_6734) (Myxococcus xanthus, UniProt Q1CXM2).
T1 construct: C-terminally His6-tagged AskC
T1 sequence (Q1CXM2 1-671): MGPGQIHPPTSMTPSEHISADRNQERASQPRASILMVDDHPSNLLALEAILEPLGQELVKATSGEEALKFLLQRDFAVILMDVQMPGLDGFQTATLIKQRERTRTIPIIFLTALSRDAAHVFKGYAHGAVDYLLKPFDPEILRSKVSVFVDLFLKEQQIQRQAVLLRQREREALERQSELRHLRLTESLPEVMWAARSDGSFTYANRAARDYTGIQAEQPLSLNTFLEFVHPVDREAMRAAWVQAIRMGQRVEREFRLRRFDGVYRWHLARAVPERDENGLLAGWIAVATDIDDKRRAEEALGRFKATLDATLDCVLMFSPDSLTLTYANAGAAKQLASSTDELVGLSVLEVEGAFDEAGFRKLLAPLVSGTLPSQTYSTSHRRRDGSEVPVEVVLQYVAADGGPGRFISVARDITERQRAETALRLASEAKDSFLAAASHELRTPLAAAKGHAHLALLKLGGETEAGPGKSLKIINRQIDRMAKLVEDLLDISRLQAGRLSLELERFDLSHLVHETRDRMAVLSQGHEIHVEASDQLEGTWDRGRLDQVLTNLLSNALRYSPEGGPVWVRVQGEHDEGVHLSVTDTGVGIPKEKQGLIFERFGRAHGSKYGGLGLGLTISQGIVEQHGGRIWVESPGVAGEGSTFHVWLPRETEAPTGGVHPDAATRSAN
Description: MST and SPR with purified protein (KD […] by MST, […] by SPR; mean given). The class given is binding. For orientation: SPR reads the build-up and loss of mass on a sensor chip optically.

The test system of series [2] is MrpC (Myxococcus xanthus DK1622). Description: EMSA. As to conditions: EMSA: 25 mM K-acetate, 8 mM MgSO4, 0.1 mM DTT, 15 mM Tris-HCl pH 7.3, 8% glycerol, 250 ng poly-dIdC, 200 fmol DNA, 15 ul, 30 C 30 min. Pull-down (purified): …. (In general: A gel shift assay detects complexes by their altered migration in electrophoresis.)
Series [3] concerns the target AskA (ambruticin sensor kinase A, MXAN_0712), hybrid histidine kinase (Myxococcus xanthus). The series is described as follows: SPR; equilibrium analysis on Biacore X100; ligand amine-coupled to a CM5 chip (which partner is not told); analyte in KB1 running buffer, 0.001 to 1000 µM; 25 °C; 1:1 fit; triplicates.
For series [4], the target named is AskB (ambruticin sensor kinase B, MXAN_6735), hybrid histidine kinase (Myxococcus xanthus). The description is as above.
Chain of AskB (ambruticin sensor kinase B, MXAN_6735), hybrid histidine kinase (Myxococcus xanthus) (main, as listed by the source): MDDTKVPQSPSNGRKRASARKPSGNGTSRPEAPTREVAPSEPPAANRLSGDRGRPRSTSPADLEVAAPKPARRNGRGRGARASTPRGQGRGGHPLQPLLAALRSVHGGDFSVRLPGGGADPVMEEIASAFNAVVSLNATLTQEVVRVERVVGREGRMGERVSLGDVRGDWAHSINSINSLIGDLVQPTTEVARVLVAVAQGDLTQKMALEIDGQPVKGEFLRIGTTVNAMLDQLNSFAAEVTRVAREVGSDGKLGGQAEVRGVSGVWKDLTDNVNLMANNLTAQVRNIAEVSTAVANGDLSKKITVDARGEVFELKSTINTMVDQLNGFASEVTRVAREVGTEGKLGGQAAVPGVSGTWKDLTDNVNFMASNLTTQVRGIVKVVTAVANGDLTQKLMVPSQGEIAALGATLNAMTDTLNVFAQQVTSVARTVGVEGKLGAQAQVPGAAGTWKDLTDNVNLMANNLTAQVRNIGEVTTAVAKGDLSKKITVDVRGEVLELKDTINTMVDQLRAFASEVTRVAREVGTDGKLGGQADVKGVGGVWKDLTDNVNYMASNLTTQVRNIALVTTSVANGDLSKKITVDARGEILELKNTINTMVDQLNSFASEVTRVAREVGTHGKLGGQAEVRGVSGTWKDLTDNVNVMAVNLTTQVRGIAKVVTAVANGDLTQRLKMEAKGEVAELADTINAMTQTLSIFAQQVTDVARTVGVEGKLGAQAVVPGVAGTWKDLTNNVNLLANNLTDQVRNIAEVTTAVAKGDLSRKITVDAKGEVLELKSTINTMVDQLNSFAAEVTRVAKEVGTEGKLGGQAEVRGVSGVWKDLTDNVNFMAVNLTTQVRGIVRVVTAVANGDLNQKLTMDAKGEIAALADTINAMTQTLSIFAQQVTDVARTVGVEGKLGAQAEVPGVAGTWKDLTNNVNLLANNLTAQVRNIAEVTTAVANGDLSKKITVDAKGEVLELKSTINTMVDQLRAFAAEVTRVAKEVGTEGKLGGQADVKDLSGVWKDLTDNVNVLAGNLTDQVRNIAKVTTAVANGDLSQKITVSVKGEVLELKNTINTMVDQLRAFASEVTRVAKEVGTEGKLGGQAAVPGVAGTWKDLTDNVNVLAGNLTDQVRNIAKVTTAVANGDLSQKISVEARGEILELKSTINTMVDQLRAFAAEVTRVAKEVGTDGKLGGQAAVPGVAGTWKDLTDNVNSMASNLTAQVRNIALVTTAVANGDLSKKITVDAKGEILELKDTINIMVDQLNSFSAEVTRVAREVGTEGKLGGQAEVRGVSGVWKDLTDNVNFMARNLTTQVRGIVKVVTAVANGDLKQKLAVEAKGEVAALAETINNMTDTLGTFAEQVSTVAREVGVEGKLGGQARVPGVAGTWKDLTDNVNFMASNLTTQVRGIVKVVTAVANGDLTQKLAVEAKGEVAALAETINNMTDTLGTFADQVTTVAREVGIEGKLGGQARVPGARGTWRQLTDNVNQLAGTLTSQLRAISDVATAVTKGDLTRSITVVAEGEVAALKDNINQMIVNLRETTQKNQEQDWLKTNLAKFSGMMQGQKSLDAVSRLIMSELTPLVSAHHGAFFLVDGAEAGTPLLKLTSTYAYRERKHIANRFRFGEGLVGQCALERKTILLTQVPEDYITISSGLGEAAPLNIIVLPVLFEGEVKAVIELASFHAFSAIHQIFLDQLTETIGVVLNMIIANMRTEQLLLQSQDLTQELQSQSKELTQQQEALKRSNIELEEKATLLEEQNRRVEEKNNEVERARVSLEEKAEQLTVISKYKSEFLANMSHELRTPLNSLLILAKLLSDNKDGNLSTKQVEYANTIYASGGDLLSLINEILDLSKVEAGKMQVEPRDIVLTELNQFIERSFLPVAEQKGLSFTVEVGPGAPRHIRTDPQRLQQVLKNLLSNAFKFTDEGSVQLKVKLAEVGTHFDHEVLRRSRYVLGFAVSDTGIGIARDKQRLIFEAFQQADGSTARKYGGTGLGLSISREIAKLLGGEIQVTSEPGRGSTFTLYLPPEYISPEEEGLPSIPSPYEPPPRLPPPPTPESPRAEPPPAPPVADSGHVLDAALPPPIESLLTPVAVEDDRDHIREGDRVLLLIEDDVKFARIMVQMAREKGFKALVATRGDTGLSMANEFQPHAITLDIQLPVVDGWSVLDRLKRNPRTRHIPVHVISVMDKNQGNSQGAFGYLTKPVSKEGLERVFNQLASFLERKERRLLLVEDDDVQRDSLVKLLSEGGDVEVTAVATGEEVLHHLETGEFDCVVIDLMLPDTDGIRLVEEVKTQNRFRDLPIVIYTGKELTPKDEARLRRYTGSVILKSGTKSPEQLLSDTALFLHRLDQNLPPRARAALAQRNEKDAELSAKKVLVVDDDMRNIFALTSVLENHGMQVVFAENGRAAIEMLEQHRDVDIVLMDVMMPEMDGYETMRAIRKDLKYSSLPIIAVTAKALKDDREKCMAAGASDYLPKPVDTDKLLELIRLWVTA
For series [5], the target named is AskA (ambruticin sensor kinase A, MXAN_0712), hybrid histidine kinase (Myxococcus xanthus). The series is described as follows: MST + SPR; average of the KD values from MST and from SPR (mean KD of Table 1).
Chain of AskA (ambruticin sensor kinase A, MXAN_0712), hybrid histidine kinase (Myxococcus xanthus) (main, as listed by the source): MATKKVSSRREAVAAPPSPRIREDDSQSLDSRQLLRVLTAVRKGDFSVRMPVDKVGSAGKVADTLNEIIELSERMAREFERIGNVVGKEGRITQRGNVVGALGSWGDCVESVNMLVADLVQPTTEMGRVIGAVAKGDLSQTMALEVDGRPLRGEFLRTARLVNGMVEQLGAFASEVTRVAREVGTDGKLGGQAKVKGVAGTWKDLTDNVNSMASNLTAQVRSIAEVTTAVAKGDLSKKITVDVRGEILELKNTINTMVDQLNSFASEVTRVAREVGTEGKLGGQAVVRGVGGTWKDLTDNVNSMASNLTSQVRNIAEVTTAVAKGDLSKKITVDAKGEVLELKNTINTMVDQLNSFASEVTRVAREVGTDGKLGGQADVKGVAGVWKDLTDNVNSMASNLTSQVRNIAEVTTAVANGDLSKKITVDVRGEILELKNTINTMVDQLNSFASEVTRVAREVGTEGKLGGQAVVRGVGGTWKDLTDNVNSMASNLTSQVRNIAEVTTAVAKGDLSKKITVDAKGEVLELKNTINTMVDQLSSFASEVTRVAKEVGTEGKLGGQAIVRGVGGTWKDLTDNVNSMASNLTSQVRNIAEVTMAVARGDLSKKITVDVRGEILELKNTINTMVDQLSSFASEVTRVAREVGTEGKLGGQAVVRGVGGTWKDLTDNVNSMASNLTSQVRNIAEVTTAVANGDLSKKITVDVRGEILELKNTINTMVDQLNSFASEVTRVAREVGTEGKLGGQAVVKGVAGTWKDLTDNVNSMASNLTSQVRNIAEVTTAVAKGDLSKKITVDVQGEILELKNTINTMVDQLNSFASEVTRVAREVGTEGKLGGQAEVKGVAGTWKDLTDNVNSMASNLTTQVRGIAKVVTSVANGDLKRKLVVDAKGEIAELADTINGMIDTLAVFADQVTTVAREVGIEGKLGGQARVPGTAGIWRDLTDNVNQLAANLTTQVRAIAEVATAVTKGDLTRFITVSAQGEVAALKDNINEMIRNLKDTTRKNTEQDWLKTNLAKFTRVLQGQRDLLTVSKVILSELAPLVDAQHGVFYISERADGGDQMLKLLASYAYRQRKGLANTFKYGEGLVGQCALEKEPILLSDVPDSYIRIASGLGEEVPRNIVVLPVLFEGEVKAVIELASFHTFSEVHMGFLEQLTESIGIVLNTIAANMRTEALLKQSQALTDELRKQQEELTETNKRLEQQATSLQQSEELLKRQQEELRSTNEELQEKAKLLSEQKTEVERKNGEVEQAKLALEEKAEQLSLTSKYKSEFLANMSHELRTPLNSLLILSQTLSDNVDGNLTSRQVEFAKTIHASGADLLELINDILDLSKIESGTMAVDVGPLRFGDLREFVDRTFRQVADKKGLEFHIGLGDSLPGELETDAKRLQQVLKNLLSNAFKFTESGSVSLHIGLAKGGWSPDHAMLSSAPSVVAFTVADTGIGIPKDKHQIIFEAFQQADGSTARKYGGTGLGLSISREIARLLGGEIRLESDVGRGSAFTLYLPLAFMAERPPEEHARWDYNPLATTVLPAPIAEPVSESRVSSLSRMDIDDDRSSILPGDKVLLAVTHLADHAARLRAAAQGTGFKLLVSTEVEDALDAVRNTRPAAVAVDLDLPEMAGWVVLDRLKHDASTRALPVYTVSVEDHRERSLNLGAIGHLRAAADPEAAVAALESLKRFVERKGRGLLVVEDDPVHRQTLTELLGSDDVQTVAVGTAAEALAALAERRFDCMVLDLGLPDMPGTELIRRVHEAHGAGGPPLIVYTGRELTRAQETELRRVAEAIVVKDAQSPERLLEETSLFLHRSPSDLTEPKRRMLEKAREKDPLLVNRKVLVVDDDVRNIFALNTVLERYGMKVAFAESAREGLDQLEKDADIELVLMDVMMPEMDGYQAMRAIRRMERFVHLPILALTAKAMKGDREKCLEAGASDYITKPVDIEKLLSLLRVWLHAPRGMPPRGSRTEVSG
For series [6], the target named is AskB (ambruticin sensor kinase B, MXAN_6735), hybrid histidine kinase (Myxococcus xanthus). The description is as above.
Series [7] concerns the target AskA (ambruticin sensor kinase A, MXAN_0712), hybrid histidine kinase (Myxococcus xanthus). The series is described as follows: MST; NT647-labelled C-terminally His6-tagged AskA, AskB or AskC titrated with serial 1:1 dilutions of non-labelled protein; buffer KB1 (500 mM NaCl, 25 mM HEPES, 0.2% Triton X100, pH 7.4); 25 °C; 40% LED power, 40% MST power; triplicates.
Series [8] has as its target AskB (ambruticin sensor kinase B, MXAN_6735), hybrid histidine kinase (Myxococcus xanthus). The description is as above.
In series [9] the target is AskC (MXAN_6734), hybrid histidine kinase, C-terminally His6-tagged (Myxococcus xanthus). The series is described as follows: SPR; equilibrium analysis on Biacore X100; ligand amine-coupled to a CM5 chip (which partner is not told); analyte in KB1 running buffer, 0.001 to 1000 µM; 25 °C; 1:1 fit; triplicates.
Series [10] shares this target. The series is described as follows: MST + SPR; average of the KD values from MST and from SPR (mean KD of Table 1).
Series [11] has the same target. Description: MST; NT647-labelled C-terminally His6-tagged AskA, AskB or AskC titrated with serial 1:1 dilutions of non-labelled protein; buffer KB1 (500 mM NaCl, 25 mM HEPES, 0.2% Triton X100, pH 7.4); 25 °C; 40% LED power, 40% MST power; triplicates.

In the case of `CCC1OC(/C(C)=C/C(C)/C=C/C2C(C)C2/C=C/C2OC(CC(=O)O)CC(N(C)C)C2O)CC=C1C` (centres unmarked) [ambVS3, ambruticin VS-3], the Kd in [1] came out at 300000 ± 200000 nM.
In the case of HEX-PmrpC, the Kd in series [2] is less than 5 nM.
Turning to “AskC (MXAN_6734), hybrid histidine kinase, C-terminally His6-tagged (enzyme)”, the dissociation constant Kd in [3] was 1400 nM; in series [4], 400 nM; in series [7] it was 4100 nM; in [8], 900 nM. For the same molecule, the mean KD amounted to 2800 nM in series [5] and 700 nM in series [6].
For the molecule “AskB (ambruticin sensor kinase B, MXAN_6735), hybrid histidine kinase (enzyme)”, the results for the Kd in series [3] and in [7] were 3000 nM and 2300 nM, respectively. Besides, the mean KD in series [5] was 2800 nM.

B1: MrpC, transcriptional regulator of development (natural protein)
chain: MHGFNRPLGPIGSNVVAPLQTTSSGMMVTANKLVPGQEAIDFKGYFKVESFPHNSTIYRPGDNTDRVYLLKSGRVRLMRIGKNSTRSVVSILRPGDLFGELFRPEGTPIEEMAIAAGEAEVWSIEGRDFRAQLEARPALAVDVVRAYAERVRALRKRVLGLTFKEVPARLADTLLTLVEAHGERCPHGGETDLRGITQQDLADLVGASRSFVSTLINEMKREGVLGNVGRILCVRDQKALRKIAGKEK
As for B1, the Kd in series [3] came out at 1000 nM; in [4], 300 nM; in series [9] it was 1600 nM; in series [7], 500 nM; in series [8] it was 2100 nM; in series [11] it was 1400 nM. Besides, the mean KD in [5] was determined as 800 nM; in series [6], 1200 nM; in series [10], 1500 nM.

B2: FruA, transcriptional regulator of development (natural protein)
chain: MATNQAAIRVSILEGPWAAWQGLADGLRGEGVQVSSVTRDVRLFLDSLGTDPPQVAVMDVEGDSEAAVGCSVTEGINLLREARKRRLEVRMLLLSAVSTPEIISQCFDEGASGYLFRAGLGTTAVASAINSLVRGERLFPVQLLRNDFEHPPVTSPTASVLLALTQREREVLAYVAGGADNLKIAAHLQIAERTVKSHVTQLYRKLGAENRTQLALRACHLGVRPPPDL
As for B2, the Kd in series [3] was 500 nM; in [4], 200 nM; in [9], 1500 nM; in [7] it was 1400 nM; in series [8], 2100 nM; in series [11], 1300 nM. Further, the results for the mean KD in series [5], in series [6] and in series [10] were 1000 nM, 1200 nM and 1400 nM, respectively.

For the origin of these results see paper PMC7643160, “An ambruticin-sensing complex modulates Myxococcus xanthus development and mediates myxobacterial interspecies communication” (Nature Communications, 2020).
